IntAct's records for PubMed 10749989

B1: Twist-related protein 1 (Homo sapiens), Q15672 (parent)
chain: MMQDVSSSPVSPADDSLSNSEEEPDRQQPPSGKRGGRKRRSSRRSAGGGAGPGGAAGGGVGGGDEPGSPAQGKRGKKSAGCGGGGGAGGGGGSSSGGGSPQSYEELQTQRVMANVRERQRTQSLNEAFAALRKIIPTLPSDKLSKIQTLKLAARYIDFLYQVLQSDELDSKMASCSYVAHERLSYAFSVWRMEGAWSMSASH

What was measured:
[1] = variants of: B1; details: with TCF3, P15923-1
[2] = variants of: B1; details: with TCF3, P15923-1; remark: listed apart in the source

Chain of TCF3, P15923-1 (P15923 whole entry): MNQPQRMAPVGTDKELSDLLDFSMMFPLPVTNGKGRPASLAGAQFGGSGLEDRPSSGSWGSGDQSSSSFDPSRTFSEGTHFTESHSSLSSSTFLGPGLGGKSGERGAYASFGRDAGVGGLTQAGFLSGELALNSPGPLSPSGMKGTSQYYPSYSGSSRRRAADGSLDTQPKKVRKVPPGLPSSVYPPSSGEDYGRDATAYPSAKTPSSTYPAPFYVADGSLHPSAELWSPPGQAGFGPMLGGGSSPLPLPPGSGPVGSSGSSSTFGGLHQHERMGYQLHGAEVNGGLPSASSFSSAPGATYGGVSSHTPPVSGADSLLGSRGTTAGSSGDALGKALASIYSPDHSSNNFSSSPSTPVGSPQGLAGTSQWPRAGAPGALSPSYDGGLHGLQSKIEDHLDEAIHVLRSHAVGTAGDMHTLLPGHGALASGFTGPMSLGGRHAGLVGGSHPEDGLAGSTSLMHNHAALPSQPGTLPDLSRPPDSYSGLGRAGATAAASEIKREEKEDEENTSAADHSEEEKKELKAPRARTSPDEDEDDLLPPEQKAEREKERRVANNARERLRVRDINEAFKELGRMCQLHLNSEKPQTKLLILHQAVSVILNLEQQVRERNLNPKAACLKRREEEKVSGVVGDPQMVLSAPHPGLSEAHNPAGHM

effect of a mutation on the interaction [1] | effect of a mutation on the interaction [2] | Variant
decreasing interaction strength | with no effect | MMQDVSSSPVSPADDSLSNSEEEPDRQQPPSGKRGGRKRRSSRRSAGGGAGPGGAAGGGVGGGDEPGSPAQGKRGKKSAGCGGGGGAGGGGGSSSGGGSPQSYEELQTQRVMANVRERQRTQSLNEAFAALRKIIPTLPSDKLSEIQTLKLAARYIDFLYQVLQSDELDSKMASCSYVAHERLSYAFSVWRMEGAWSMSASH [K145E]
disrupting interaction strength | decreasing interaction strength | MMQDVSSSPVSPADDSLSNSEEEPDRQQPPSGKRGGRKRRSSRRSAGGGAGPGGAAGGGVGGGDEPGSPAQGKRGKKSAGCGGGGGAGGGGGSSSGGGSPQSYEELQTQRVMANVRERQRTQSLNEAFAALRKIIPTLPSDKLSKIQTLKLAARYIDFFYQVLQSDELDSKMASCSYVAHERLSYAFSVWRMEGAWSMSASH [L159F]
disrupting interaction strength | decreasing interaction strength | MMQDVSSSPVSPADDSLSNSEEEPDRQQPPSGKRGGRKRRSSRRSAGGGAGPGGAAGGGVGGGDEPGSPAQGKRGKKSAGCGGGGGAGGGGGSSSGGGSPQSYEELQTQRVMANVRERQRTQSLNEAFPALRKIIPTLPSDKLSKIQTLKLAARYIDFLYQVLQSDELDSKMASCSYVAHERLSYAFSVWRMEGAWSMSASH [A129P]
